Residue numbers refer to the chain shown, from its start. Names and notes keep the numbering of the source. Each block holds one molecule with its values, some of them ahead of it.
How the values were obtained:
[1] = biological target: EXO1-FLAG, full length, as printed for Fig. 3h and Fig. 6d (UniProt Q9UQ84); experiment: pull-down (anti-FLAG immobilised EXO1-FLAG, Western blot quantification); conditions: n = 3 independent experiments, parent: est. 1.0, read off a plot
Human MutLγ (MLH1-MLH3) = biological target: T1, Human MutLγ (MLH1-MLH3) (human, UniProt P40692 1-756; Q9UHC1 1-1453); experiment: pull-down; MutLγ (bait, 1 μg) held by anti-MLH1 antibody on protein G magnetic beads; EXO1-FLAG variants (prey, 1 μg) added; 25 mM Tris-HCl pH 7.5, 3 mM EDTA, 1 mM DTT, 20 μg/ml BSA, 50 mM NaCl, 4 °C, 1 h; washes with 100 mM NaCl, 0.05% Triton X-100; Western blot; conditions: both partners purified
T1 construct: MLH1, human, from pFB-FLAG-hMLH1co; MLH3, human, from pFB-His-MBP-hMLH3co; The methods say that the MBP tag was cleaved with PreScission protease; also called FLAG-MLH1 and MBP-MLH3; FLAG-MLH1-MBP-MLH3; source: Sf9, purified (amylose resin, M2 anti-FLAG resin); not shown: FLAG, N-terminal, kept; MBP, N-terminal, kept

[2] = biological target: T2, EXO1-FLAG, full length, for Fig. 3h and Fig. 6d, Q9UQ84; experiment: pull-down (anti-FLAG immobilised EXO1-FLAG, Western blot quantification); conditions: chain shown with the change; n = 3 independent experiments; p < 0.0001 vs WT; parent: est. 1.0; read off a plot
T2 chain: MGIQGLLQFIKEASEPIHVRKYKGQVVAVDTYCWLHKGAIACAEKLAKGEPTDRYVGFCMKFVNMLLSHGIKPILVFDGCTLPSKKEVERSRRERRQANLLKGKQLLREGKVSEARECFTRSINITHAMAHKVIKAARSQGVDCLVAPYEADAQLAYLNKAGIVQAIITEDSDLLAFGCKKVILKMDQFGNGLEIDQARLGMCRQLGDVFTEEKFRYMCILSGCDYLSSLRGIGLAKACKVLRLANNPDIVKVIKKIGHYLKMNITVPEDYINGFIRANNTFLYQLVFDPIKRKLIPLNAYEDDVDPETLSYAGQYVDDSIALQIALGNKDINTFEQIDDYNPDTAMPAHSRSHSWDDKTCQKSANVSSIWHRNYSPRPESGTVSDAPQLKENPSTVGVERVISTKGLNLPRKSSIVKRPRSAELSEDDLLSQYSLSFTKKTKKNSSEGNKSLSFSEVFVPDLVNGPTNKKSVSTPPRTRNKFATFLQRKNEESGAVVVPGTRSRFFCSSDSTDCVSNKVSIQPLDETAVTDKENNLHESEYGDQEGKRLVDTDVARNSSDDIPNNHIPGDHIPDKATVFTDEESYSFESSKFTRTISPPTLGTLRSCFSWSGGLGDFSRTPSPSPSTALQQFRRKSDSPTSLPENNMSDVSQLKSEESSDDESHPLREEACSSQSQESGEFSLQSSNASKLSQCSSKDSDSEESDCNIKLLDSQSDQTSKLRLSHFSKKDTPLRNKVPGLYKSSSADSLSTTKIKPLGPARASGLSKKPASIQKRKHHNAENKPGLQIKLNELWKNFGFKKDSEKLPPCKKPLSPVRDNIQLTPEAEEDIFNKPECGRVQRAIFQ

Molecule: Human MutSγ (MSH4-MSH5) (from UniProt O15457;O43196) MSH4:F225E; MSH4:F288E
- ratio to parent ([1]; p = 0.005 vs WT): 0.2 arb. units

Molecule: Human MutSγ (MSH4-MSH5) (from UniProt O15457;O43196) MSH4:F225E
- ratio to parent ([1]; p = 0.22 vs WT): 0.66 arb. units

Molecule: Human MutSγ (MSH4-MSH5) (from UniProt O15457;O43196) MSH4:F288E
- ratio to parent ([1]; p = 0.19 vs WT): 0.73 arb. units

B1: Nuclease-deficient human EXO1 (D173A)-FLAG, full length (enzyme, UniProt Q9UQ84 1-846, looked up)
chain: T2 chain with D173A
notes: EXO1, human, from pFB-MBP-PP-EXO1(D173A)-1xFLAG; last residue at position 846; also called nuclease-dead EXO1 (D173A); source: Sf9, purified (amylose resin, PreScission cleavage, FLAG M2 resin); not shown: MBP, N-terminal, cleaved; FLAG, C-terminal, kept
- binding result (Human MutLγ (MLH1-MLH3)): binds

Now from value to molecule:

- binding result (Human MutLγ (MLH1-MLH3)): binds
B2: EXO1 (D173A MIP)-FLAG (F506A and F507A in the MIP motif) (enzyme, human, UniProt Q9UQ84 1-846, looked up)
chain: T2 chain with D173A, F506A, F507A
notes: EXO1, human, derivative of pFB-MBP-PP-EXO1(D173A)-1xFLAG; also called EXO1 MIP mutants; MIP mutations; source: Sf9, purified (amylose resin, PreScission cleavage, FLAG M2 resin); not shown: MBP, N-terminal, cleaved; FLAG, C-terminal, kept

- binding result (Human MutLγ (MLH1-MLH3)): binds
B3: EXO1 (D173A I403E)-FLAG (enzyme, human, UniProt Q9UQ84 1-846, looked up)
chain: T2 chain with D173A, I403E
notes: EXO1, human, derivative of pFB-MBP-PP-EXO1(D173A)-1xFLAG; also called EXO1 (I403E); source: Sf9, purified (amylose resin, PreScission cleavage, FLAG M2 resin); not shown: MBP, N-terminal, cleaved; FLAG, C-terminal, kept

- ratio to parent [2]: 0.08 arb. units
B4: Human MutSγ (MSH4-MSH5), O15457;O43196 MSH4:T238E; MSH4:Y244D; MSH4:F288E (protein)
chain 1: MLRPEISSTSPSAPAVSPSSGETRSPQGPRYNFGLQETPQSRPSVQVVSASTCPGTSGAAGDRSSSSSSLPCPAPNSRPAQGSYFGNKRAYAENTVASNFTFGASSSSARDTNYPQTLKTPLSTGNPQRSGYKSWTPQVGYSASSSSAISAHSPSVIVAVVEGRGLARGEIGMASIDLKNPQIILSQFADNTTYAKVITKLKILSPLEIIMSNTACAVGNSTKLFTLITENFKNVNFETIQRKDFNETKGLEYIEQLCIAEFSTVLMEVQSKYYCLAAVAALLKYVEEIQNSVYAPKSLKICFQGSEQTAMIDSSSAQNLELLINNQDYRNNHTLFGVLNYTKTPGGSRRLRSNILEPLVDIETINMRLDCVQELLQDEELFFGLQSVISRFLDTEQLLSVLVQIPKQDTVNAAESKITNLIYLKHTLELVDPLKIAMKNCNTPLLRAYYGSLEDKRFGIILEKIKTVINDDARYMKGCLNMRTQKCYAVRSNINEFLDIARRTYTEIVDDIAGMISQLGEKYSLPLRTSFSSARGFFIQMTTDCIALPSDQLPSEFIKISKVKNSYSFTSADLIKMNERCQESLREIYHMTYMIVCKLLSEIYEHIHCLYKLSDTVSMLDMLLSFAHACTLSDYVRPEFTDTLAIKQGWHPILEKISAEKPIANNTYVTEGSNFLIITGPNMSGKSTYLKQIALCQIMAQIGSYVPAEYSSFRIAKQIFTRISTDDDIETNSSTFMKEMKEIAYILHNANDKSLILIDELGRGTNTEEGIGICYAVCEYLLSLKAFTLFATHFLELCHIDALYPNVENMHFEVQHVKNTSRNKEAILYTYKLSKGLTEEKNYGLKAAEVSSLPPSIVLDAKEITTQITRQILQNQRSTPEMERQRAVYHLATRLVQTARNSQLDPDSLRIYLSNLKKKYKEDFPRTEQVPEKTEE
chain 2: MASLGANPRRTPQGPRPGAASSGFPSPAPVPGPREAEEEEVEEEEELAEIHLCVLWNSGYLGIAYYDTSDSTIHFMPDAPDHESLKLLQRVLDEINPQSVVTSAKQDENMTRFLGKLASQEHREPKRPEIIFLPSVDFGLEISKQRLLSGNYSFIPDAMTATEKILFLSSIIPFDCLLTVRALGGLLKFLGRRRIGVELEDYNVSVPILGFKKFMLTHLVNIDQDTYSVLQIFKSESHPSVYKVASGLKEGLSLFGILNRCHCKWGEKLLRLWFTRPTHDLGELSSRLDVIQFFLLPQNLDMAQMLHRLLGHIKNVPLILKRMKLSHTKVSDWQVLYKTVYSALGLRDACRSLPQSIQLFRDIAQEFSDDLHHIASLIGKVVDFEGSLAENRFTVLPNIDPEIDEKKRRLMGLPSFLTEVARKELENLDSRIPSCSVIYIPLIGFLLSIPRLPSMVEASDFEINGLDFMFLSEEKLHYRSARTKELDALLGDLHCEIRDQETLLMYQLQCQVLARAAVLTRVLDLASRLDVLLALASAARDYGYSRPRYSPQVLGVRIQNGRHPLMELCARTFVPNSTECGGDKGRVKVITGPNSSGKSIYLKQVGLITFMALVGSFVPAEEAEIGAVDAIFTRIHSCESISLGLSTFMIDLNQVAKAVNNATAQSLVLIDEFGKGTNTVDGLALLAAVLRHWLARGPTCPHIFVATNFLSLVQLQLLPQGPLVQYLTMETCEDGNDLVFFYQVCEGVAKASHASHTAAQAGLPDKLVARGKEVSDLIRSGKPIKPVKDLLKKNQMENCQTLVDKFMKLDLEDPNLDLNVFMSQEVLPAATSIL
